This note sets out measurements from patent US20230111212A1, “MUSCLE TARGETING COMPLEXES AND USES THEREOF FOR TREATING DYSTROPHINOPATHIES” (Dyne Therapeutics, Inc., priority 2020, published 2023).

pKd: −log10 of the molar value.

For assay [1], the target named is human transferrin receptor 1 (human) (UniProt P02786). Description: Carterra LSA at 25C, IgG captured on anti-IgG lawn, hTfR1 injected, 1:1 Langmuir fit.
For assay [2], the target named is human transferrin receptor 2 (human) (UniProt Q9UP52). The experiment in a line: ELISA on human TfR2, RFU. (In general: ELISA stands for enzyme-linked immunosorbent assay.)
Sequence of human transferrin receptor 2 (human) (Q9UP52 105-801 limits assumed): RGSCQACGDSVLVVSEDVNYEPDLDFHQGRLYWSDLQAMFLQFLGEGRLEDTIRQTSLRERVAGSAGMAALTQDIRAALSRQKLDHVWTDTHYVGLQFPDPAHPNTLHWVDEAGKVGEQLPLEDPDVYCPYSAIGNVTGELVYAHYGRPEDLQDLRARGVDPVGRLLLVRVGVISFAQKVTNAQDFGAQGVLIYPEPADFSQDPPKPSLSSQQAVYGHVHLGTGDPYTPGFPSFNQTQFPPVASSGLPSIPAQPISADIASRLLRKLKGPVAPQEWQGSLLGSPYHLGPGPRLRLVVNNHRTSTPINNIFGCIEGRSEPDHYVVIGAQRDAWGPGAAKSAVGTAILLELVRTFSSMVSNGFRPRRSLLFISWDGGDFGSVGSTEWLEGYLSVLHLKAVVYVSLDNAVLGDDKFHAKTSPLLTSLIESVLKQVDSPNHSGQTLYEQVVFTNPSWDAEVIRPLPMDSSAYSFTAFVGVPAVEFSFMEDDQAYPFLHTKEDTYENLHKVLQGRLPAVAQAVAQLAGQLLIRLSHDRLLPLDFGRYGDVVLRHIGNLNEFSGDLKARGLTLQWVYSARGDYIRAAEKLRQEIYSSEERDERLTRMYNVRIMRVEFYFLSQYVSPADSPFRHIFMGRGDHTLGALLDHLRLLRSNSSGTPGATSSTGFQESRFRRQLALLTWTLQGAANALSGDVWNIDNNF

Sequence of human transferrin receptor 1 (human) (P02786 89-760 limits assumed): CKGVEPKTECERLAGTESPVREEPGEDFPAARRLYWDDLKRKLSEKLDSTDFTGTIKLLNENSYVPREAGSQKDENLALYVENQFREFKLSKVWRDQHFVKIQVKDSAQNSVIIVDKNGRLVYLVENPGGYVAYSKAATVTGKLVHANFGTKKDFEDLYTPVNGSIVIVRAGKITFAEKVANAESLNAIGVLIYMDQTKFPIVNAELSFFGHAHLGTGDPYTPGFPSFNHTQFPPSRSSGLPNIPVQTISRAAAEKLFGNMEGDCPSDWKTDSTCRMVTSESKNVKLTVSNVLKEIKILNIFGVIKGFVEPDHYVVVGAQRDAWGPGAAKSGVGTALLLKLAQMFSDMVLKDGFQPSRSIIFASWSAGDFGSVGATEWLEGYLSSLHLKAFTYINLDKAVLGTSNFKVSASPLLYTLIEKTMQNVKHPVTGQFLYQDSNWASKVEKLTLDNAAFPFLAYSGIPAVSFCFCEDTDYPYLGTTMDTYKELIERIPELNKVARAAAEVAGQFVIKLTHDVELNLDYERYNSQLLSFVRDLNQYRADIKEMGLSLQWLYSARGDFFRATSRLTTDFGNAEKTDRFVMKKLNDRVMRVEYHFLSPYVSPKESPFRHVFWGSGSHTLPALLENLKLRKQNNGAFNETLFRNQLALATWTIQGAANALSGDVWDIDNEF

Usually pKd stands for the negative decadic logarithm of the Kd, by convention in mol/L. By kon is commonly meant a measure of how fast the partners come together. High values mean faster complex formation, low ones slower complex formation. As for OKT9 mIgG (antibody), in assay [1], the pKd was 9.27 and the kon worked out at 774000 M⁻¹ s⁻¹. Usually EC50 (read off the curve) stands for the midpoint of the concentration-response curve. TfR2 Monoclonal Antibody (OTI1B1) showed an EC50 (read off the curve) in assay [2] of 2 nM.
